# Results as given in patent publication US20180022822A1 (MABIMMUNE DIAGNOSTICS, published 2018).
# B1: NI-206.82C2 (antibody, V domains shown)
# VH: QVQLQQSGPGLVKPSQTLSLTCAISGDSVSSNSVTWNWIRQSPSRGLEWLGRTYYRSKWYNDYAVSVKGRITINPDTSKNQFYLQLKSVTPEDAAVYYCARDSSILYGDYWGQGTLVTVSS
# VL: QAVLTQPSSLSASPGASASLTCTLPSGINVGTYRIFWFQQKPGSPPQYLLSYKSDSDNHQGSGVPSRFSGSKDASANAGILLISGLQSEDEADYYCMIWHSSAWVFGGGTKLTVL
# notes: Recombinantly expressed as complete human IgG1 with a lambda light chain; HRP-labelled in the homologue and sandwich ELISAs, Cy5-labelled in flow cytometry; also called HRP-labelled 82C2; Cy5 labelled 82C2
# Target: T1, bovine serum albumin (BSA) (bovine, UniProt P02769 25-607)
# T1 construct: Negative control antigen in the ELISAs
# Assay: direct ELISA: BSA coated directly on the plate
# T1 sequence (P02769 25-607 limits assumed): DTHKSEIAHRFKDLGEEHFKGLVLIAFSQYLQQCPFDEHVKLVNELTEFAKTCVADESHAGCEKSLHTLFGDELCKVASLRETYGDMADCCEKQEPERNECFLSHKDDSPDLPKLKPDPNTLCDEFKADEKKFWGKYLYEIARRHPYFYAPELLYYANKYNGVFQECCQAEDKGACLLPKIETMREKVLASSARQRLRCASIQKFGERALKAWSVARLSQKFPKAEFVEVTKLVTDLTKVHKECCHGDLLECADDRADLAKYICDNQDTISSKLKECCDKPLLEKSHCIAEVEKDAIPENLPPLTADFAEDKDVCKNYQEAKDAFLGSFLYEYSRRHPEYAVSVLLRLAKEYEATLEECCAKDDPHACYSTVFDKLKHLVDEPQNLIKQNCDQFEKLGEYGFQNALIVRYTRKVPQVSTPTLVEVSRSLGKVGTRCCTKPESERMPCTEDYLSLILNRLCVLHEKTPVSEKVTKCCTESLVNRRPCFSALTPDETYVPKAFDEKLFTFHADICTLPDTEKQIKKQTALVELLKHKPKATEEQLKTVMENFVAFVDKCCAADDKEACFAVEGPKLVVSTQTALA
binder,measurement,value
B1,binding result,no binding
